Common to all, as to assay: purified protein
Holding throughout (conditions): 0.2 mM NADPH, 50 mM Tris-HCl pH 7.5, 1 mM DTT, 25°C

For one data set, the system named is CC(=O)C(C)O.
Substrate in data set [1]: CC(C)=O
Substrate in data set [2]: CCC(C)=O
Substrate in data set [3]: CC(=O)C(C)O
This is another data set of the same source.

For the molecule “CaADH (Clostridium autoethanogenum DSM 10061; S199R)”, in the data set on CC(=O)C(C)O, the Km is listed as 34 ± 5 mM, the kcat is 95 ± 4 s⁻¹ and the kcat/Km worked out at 2800 M⁻¹ s⁻¹.

B1: CaADH (Clostridium autoethanogenum DSM 10061) (protein)
chain: KGFAMLGINKLGWIEKKNPVPGPYDAIVHPLAVSPCTSDIHTVFEGALGNRENMILGHEAVGEIAEVGSEVKDFKVGDRVIVPCTTPDWRSLEVQAGFQQHSNGMLAGWKFSNFKDGVFADYFHVNDADMNLAILPDEIPLESAVMMTDMMTTGFHGAELADIKMGSSVVVIGIGAVGLMGIAGSKLRGAGRIIGVGSRPVCVETAKFYGATDIVNYKNGDIVEQIMDLTHGKGVDRVIMAGGGAETLAQAVTMVKPGGVISNINYHGSGDTLPIPRVQWGCGMAHKTIRGGLCPGGRLRMEMLRDLVLYKRVDLSKLVTHVFDGAENIEKALLLMKNKPKDLIKSVVTF
As for B1, in the data set “purified protein [1]”, the Km was determined as 1.0 ± 0.1 mM, the kcat is 55 s⁻¹ and the kcat/Km was found to be 55000 M⁻¹ s⁻¹. Besides, in “purified protein [2]”, the Km was 1.8 ± 0.2 mM, the kcat was 37 s⁻¹ and the kcat/Km was 21000 M⁻¹ s⁻¹. In addition, in “purified protein [3]”, the Km worked out at 98 ± 10 mM, the kcat amounted to 150 ± 8 s⁻¹ and the kcat/Km came to 1600 M⁻¹ s⁻¹.

As a reminder, the Km is the substrate concentration at which the rate is half of its maximum. As a reminder, the kcat is the maximal rate divided by the concentration of active sites. Broadly, the kcat/Km is the turnover number divided by the Michaelis constant.

For the origin of these results see publication PMC4498498.
